# T1: ADAMTS5 (human, UniProt Q9UNA0 262-622, limits assumed)
# T1 sequence (looked up): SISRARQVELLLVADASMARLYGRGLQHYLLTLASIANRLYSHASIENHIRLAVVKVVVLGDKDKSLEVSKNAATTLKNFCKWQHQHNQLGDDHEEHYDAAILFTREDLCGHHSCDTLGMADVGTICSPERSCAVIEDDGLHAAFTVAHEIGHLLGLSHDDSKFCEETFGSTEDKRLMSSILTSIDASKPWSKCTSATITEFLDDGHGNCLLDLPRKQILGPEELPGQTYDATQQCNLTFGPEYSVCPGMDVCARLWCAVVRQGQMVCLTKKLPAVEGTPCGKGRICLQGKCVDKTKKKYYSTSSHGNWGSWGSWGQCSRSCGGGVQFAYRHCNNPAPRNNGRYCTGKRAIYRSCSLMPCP
# T2: ADAMTS4 (human, UniProt O75173 213-685, limits assumed)
# T2 sequence (looked up): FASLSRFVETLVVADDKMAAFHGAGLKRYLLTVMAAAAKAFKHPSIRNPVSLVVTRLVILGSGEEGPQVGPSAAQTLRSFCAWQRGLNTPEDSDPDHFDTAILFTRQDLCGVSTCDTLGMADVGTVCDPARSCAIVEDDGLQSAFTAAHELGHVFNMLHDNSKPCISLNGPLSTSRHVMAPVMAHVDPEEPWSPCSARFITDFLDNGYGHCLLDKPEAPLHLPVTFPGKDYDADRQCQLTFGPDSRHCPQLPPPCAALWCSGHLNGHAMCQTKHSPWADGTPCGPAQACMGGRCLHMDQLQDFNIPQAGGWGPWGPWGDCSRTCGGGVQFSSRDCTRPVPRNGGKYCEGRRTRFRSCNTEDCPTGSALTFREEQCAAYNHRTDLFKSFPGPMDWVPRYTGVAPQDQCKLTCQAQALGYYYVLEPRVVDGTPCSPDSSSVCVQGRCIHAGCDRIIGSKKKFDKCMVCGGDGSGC
# B1: Variant A2M, bait region SEQ ID NO 123 (other)
# chain: SVSGKPQYMVLVPSLLHTETTEKGCVLLSYLNETVTVSASLESVRGNRSLFTDLEAENDVLHCVAFAVPKSSSNEEVMFLTVQVKGPTQEFKKRTTVMVKNEDSLVFVQTDKSIYKPGQTVKFRVVSMDENFHPLNELIPLVYIQDPKGNRIAQWQSFQLEGGLKQFSFPLSSEPFQGSYKVVVQKKSGGRTEHPFTVEEFVLPKFEVQVTVPKIITILEEEMNVSVCGLYTYGKPVPGHVTVSICRKYSDASDCHGEDSQAFCEKFSGQLNSHGCFYQQVKTKVFQLKRKEYEMKLHTEAQIQEEGTVVELTGRQSSEITRTITKLSFVKVDSHFRQGIPFFGQVRLVDGKGVPIPNKVIFIRGNEANYYSNATTDEHGLVQFSINTTNVMGTSLTVRVNYKDRSPCYGYQWVSEEHEEAHHTAYLVFSPSKSFVHLEPMSHELPCGHTQTVQAHYILNGGTLLGLKKLSFYYLIMAKGGIVRTGTHGLLVKQEDMKGHFSISIPVKSDIAPVARLLIYAVLPTGDVIGDSAKYDVENCLANKVDLSFSPSQSLPASHAHLRVTAAPQSVCALRAVDQSVLLMKPDAELSASSVYNLLPEKDLTGFPGPLNDQDDEDCINRHNVYINGITYTPVSSTNEKDMYSFLEDMGLKAFTNSKIRKPKMCPQLESQELGQRESESEGSELEGRGSGFKEGVEGKEEEGLGSGFFGFPIGKLRKYFPETWIWDLVVVNSAGVAEVGVTVPDTITEWKAGAFCLSEDAGLGISSTASLRAFQPFFVELTMPYSVIRGEAFTLKATVLNYLPKCIRVSVQLEASPAFLAVPVEKEQAPHCICANGRQTVSWAVTPKSLGNVNFTVSAEALESQELCGTEVPSVPEHGRKDTVIKPLLVEPEGLEKETTFNSLLCPSGGEVSEELSLKLPPNVVEESARASVSVLGDILGSAMQNTQNLLQMPYGCGEQNMVLFAPNIYVLDYLNETQQLTPEIKSKAIGYLNTGYQRQLNYKHYDGSYSTFGERYGRNQGNTWLTAFVLKTFAQARAYIFIDEAHITQALIWLSQRQKDNGCFRSSGSLLNNAIKGGVEDEVTLSAYITIALLEIPLTVTHPVVRNALFCLESAWKTAQEGDHGSHVYTKALLAYAFALAGNQDKRKEVLKSLNEEAVKKDNSVHWERPQKPKAPVGHFYEPQAPSAEVEMTSYVLLAYLTAQPAPTSEDLTSATNIVKWITKQQNAQGGFSSTQDTVVALHALSKYGAATFTRTGKAAQVTIQSSGTFSSKFQVDNNNRLLLQQVSLPELPGEYSMKVTGEGCVYLQTSLKYNILPEKEEFPFALGVQTLPQTCDEPKAHTSFQISLSVSYTGSRSASNMAIVDVKMVSGFIPLKPTVKMLERSNHVSRTEVSSNHVLIYLDKVSNQTLSLFFTVLQDVPVRDLKPAIVKVYDYYETDEFAIAEYNAPCSKDLGNADYKDDDDKGASHHHHHH
# Tests used:
# Assay in all cases: cell-based or functional assay
# [1] = target: MMP13 (human, UniProt P45452 104-471, limits assumed)
# [2] = target: T1, ADAMTS5
# [3] = target: T2, ADAMTS4
binder,measurement,setting,value
B1,Protease Inhibition (% of WT),[1],122 % of WT
same,Protease Inhibition (% of WT),[2],126 % of WT
same,Protease Inhibition (% of WT),[3],86 % of WT
